Laboratory results: article PMC6640709, “Selection and Characterization of a Nanobody Biosensor of GTP-Bound RHO Activities” (Antibodies, 2019)

Tests used:
[1] = target: T1, 2SHA-RHOA L63 constitutively active mutant, deleted for the CAAX motif (Homo sapiens (Human)., UniProt P61586, Q63L); assay: SPR; RH57-6xHis-Myc-6xHis captured on Ni-NTA chip (250-300 RU); 2S-HA-RHOA L63 or N19 as analyte, 3.125-50 nM, single-cycle kinetics; HBS-P+ (10 mM HEPES pH 7.4, 150 mM NaCl, 0.05% P20); 1:1 Langmuir fit; BIAcore T200; details: both partners purified
T1 construct: RHOA (Ras homologous family member A), deleted for the carboxy terminal four amino acids (CAAX motif); also called RHOA-CA; RHOA Q63L; source: E. coli BL21(DE3), purified (Strep-Tactin); not shown: 2x-Strep-tag, N-terminal, kept; HA, N-terminal, kept
T1 sequence (P61586 1-189 Q63L): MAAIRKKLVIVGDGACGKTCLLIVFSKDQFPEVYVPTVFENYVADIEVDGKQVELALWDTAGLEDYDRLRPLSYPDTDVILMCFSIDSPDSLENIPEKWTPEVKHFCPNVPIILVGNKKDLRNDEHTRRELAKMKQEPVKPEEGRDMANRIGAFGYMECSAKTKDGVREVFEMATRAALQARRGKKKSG

[2] = target: T2, 2SHA-RHOA wild type, deleted for the CAAX motif (Homo sapiens (Human)., UniProt P61586); assay: SPR; RH57-6xHis-Myc-6xHis captured on Ni-NTA chip; 2S-HA-RHOA WT loaded with GTPγS as analyte, 12.5-200 nM, single-cycle kinetics; HBS-P+; 1:1 Langmuir fit; details: both partners purified
T2 construct: RHOA (Ras homologous family member A), deleted for the carboxy terminal four amino acids (CAAX motif); the two nucleotide states are told apart by the assay; also called RHOA WT; 2S-HA-RHOA wt; source: E. coli BL21(DE3), purified (Strep-Tactin), loaded with GTPγS or GDP; not shown: 2x-Strep-tag, N-terminal, kept; HA, N-terminal, kept
T2 sequence (P61586 1-189, stated change not applied): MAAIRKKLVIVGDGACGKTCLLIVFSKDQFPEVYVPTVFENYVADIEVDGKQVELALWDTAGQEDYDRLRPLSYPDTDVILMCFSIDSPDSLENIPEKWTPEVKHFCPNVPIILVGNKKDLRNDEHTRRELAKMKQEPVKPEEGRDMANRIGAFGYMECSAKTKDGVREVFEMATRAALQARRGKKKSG

[3] = target: 2SHA-RHOA N19 dominant negative mutant, deleted for the CAAX motif (UniProt P61586 1-189, T19N); assay: SPR
Sequence of 2SHA-RHOA N19 dominant negative mutant, deleted for the CAAX motif (P61586 1-189 T19N): as the sequence (P61586 1-189 Q63L) above, with T19N, L63Q counted along it

endogenous RHOC = target: T3, endogenous RHOC (Homo sapiens (Human)., UniProt P08134); assay: co-IP; RH57-6xHis-Myc expressed in HeLa; fresh, non-loaded lysate; intracellular antibody captured on His-tag Ni-NTA resin; endogenous RHO proteins blotted; details: partners not purified
T3 construct: RHOC, endogenous in HeLa cells; also called RHOA/B/C proteins; source: endogenous, HeLa lysate
T3 sequence (P08134 whole entry): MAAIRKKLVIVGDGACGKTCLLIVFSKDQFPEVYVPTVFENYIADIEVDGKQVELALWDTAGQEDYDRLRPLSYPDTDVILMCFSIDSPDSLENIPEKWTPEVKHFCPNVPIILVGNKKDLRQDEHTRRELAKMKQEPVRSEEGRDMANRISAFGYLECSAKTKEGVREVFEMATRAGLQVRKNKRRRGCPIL

endogenous RHOB = target: T4, endogenous RHOB (Homo sapiens (Human)., UniProt P62745); assay: as above; details: partners not purified
T4 construct: RHOB (RAS homologous family member B), endogenous in HeLa cells; also called RHOA/B/C proteins; source: endogenous, HeLa lysate
T4 sequence (P62745 whole entry): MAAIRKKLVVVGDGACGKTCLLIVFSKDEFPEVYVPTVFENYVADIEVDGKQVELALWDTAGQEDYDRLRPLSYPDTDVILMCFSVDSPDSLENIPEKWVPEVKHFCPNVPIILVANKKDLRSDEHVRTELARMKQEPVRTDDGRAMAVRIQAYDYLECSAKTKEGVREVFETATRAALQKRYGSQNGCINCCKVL

Row | Binder | Kd [1] | Kd [2] | Kd [3] | binding result (endogenous RHOC) | binding result (endogenous RHOB)
1 | RH57 hs2dAb fused at its carboxy terminal end with 6xHis-Myc-6xHis tag (VHH, humanized synthetic single domain antibody from the NaLi-H1 phage display library; also called RH57-6xhis-myc-6xhis; RH57 nanobody; source: E. coli XL1BLUE periplasm, purified (His-tag purification beads); not shown: 6xHis, C-terminal, kept; Myc, C-terminal, kept) VHH: EVQLQASGGGFVQPGGSLRLSCAASGDTWWSSAMGWFRQAPGKEREFVSAISFYPTEYTYYADSVKGRFTISRDNSKNTVYLQMNSLRAEDTATYYCAWIAWGPWMRTSWYWGQGTQVTVSS | 28 nM | 60.5 nM | 2410 nM |  | 
2 | RH57 intracellular antibody with carboxy-terminal 6xHis tag followed by Myc tag (VHH, as the VHH of m1; also called hs2dAb RH57 with a 6xhis and carboxy Myc tag; source: HeLa, transiently transfected, in lysate; not shown: 6xHis, C-terminal, kept; Myc, C-terminal, kept) VHH: EVQLQASGGGFVQPGGSLRLSCAASGDTWWSSAMGWFRQAPGKEREFVSAISFYPTEYTYYADSVKGRFTISRDNSKNTVYLQMNSLRAEDTATYYCAWIAWGPWMRTSWYWGQGTQVTVSS |  |  |  | binds | binds
